Source: PMC12684077 (Cell, 2025)

B1: RSV-3301 Fab (Fab, V domains shown)
VH: QVQLVESGPTLVKPTQTLTLTCSFSGFSLSTRGVGVGWVRQPPGKALECLGFTYWDGDEYYSPSLRNRVTISKDTSKNQVVLTLTNMDPVDTATYFCVHSDLYDRGGYYLYYFDYWGQGTLVTVSS
VL: DIRVTQSPSSLSASVGDRVTITCRASQTIASYVNWYQQKPGRAPELLIYAASILQSGVPSRFSGRGSGTDFTLTINGLQPEDFATYYCQQSYSSPWTFGQGTKVEIK
B2: RSV-2245 Fab (Fab, V domains shown)
VH: QVQLVQSGAEVKKPGASVKVSCKASGYSFSSFGVSWVRQAPGQGLEWLGWISAYNGNTDYAQKVQGRLTMTTDTSTNTAYMELRNLRSDDTAVYYCARDPPASAAAMFDYWGQGTLVTVSS
VL: not shown

Molecular target: RSV prefusion F (PR-DM) (Human respiratory syncytial virus A, …, stabilised)
Assay: cryo-EM structure

Row | Binder | stoichiometry N
1 | B1 | 3 copies of the Fab per F trimer
2 | B2 | 3 copies of the Fab per F trimer
